pKd: −log10 of the molar value.
Experiments:
[1] = target: Recombinant Protein A (UniProt P38507); assay: MetaSPR; quantitative detection by differential absorption spectra, dual-wavelength OD difference (OD615-OD590); triple-layer chip; Protein A immobilised; IgG 0-10 µg/mL
[2] = target: Recombinant Protein A (UniProt P38507); assay: MetaSPR; quadruple-layer (Ti-Ag-Au-Ag-Au) nanocup array chip, 96-well; Protein A (20 µg/mL in CBS buffer) immobilised 16 h, blocked with 1% BSA; IgG 0.1-66.7 nM in PBS; 10 min association, 15 min dissociation
[3] = target: Recombinant Protein A (UniProt P38507); assay: MetaSPR; single-layer (Ti-Au) nanocup array chip, 96-well; Protein A (20 µg/mL in CBS buffer) immobilised 16 h, blocked with 1% BSA; IgG 0.1-66.7 nM in PBS; 10 min association, 15 min dissociation
[4] = target: Recombinant Protein A (UniProt P38507); assay: MetaSPR; double-layer (Ti-Ag-Au) nanocup array chip, 96-well; Protein A (20 µg/mL in CBS buffer) immobilised 16 h, blocked with 1% BSA; IgG 0.1-66.7 nM in PBS; 10 min association, 15 min dissociation
[5] = target: Recombinant Protein A (UniProt P38507); assay: MetaSPR; triple-layer (Ti-Au-Ag-Au) nanocup array chip, 96-well; Protein A (20 µg/mL in CBS buffer) immobilised 16 h, blocked with 1% BSA; IgG 0.1-66.7 nM in PBS; 10 min association, 15 min dissociation

## Immunoglobulin Antigen (Human IgG) (antibody)
[1]
  maximum reaction value (dual-wavelength OD difference) at the highest IgG concentration (10 µg/mL): 0.435
[2]
  pKd: 9.66
[3]
  pKd: 9.62
[4]
  pKd: 9.94
[5]
  pKd: 9.91
